Literature values in PMC7561547.

Biological target: Her2 (Homo sapiens) (UniProt P04626)

Substance: trastuzumab
- Kd: 0.1 nM
